Source: doi:10.1101/2021.11.15.468501

Biological target: human MCU-EMRE fusion protein (hME) (human)

With “MICU1EF (MICU1 with D231A, E242K, D421A, E432K), N-terminally MBP-tagged (from UniProt Q9BPX6 34-476) (natural protein)” the time constant of the decay of hME Ca2+ current on perfusion of 10 μM MICU1EF was 44 s.
